Reference: the supplement of paper PMC10126150
± gives the standard deviation of the averaged measurements.

Test system: ATP
Experiment: switch fluorescence ratio, 500 uM ATP over buffer (Cy3 cluster intensity, sum of 5 cycles each) (fold (ratio)); higher = stronger signal-on switching upon ATP binding; sequences stand for … in TCGTCGGCAGCGTCAGATGTGTATAAGAGACAGTTTTTTTTTTTTTTTTTTTTTTTTT…TC
Details: aptamer strand: ATP DNA aptamer (quencher-CACCTGGGGGAGTATTGCGGAGGAAGG + anchor), 100 nM annealed; ATP concentration: 500 uM
Summary of the method: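 Between each of five buffer/ATP cycles, the flow-cell was stripped with NaOH and re-annealed. Each cycle imaged Cy3-labelled switching-strand clusters, annealed to 100 nM quencher-labelled ATP aptamer on a modified Illumina MiSeq flow-cell, first in selection buffer and then after 15 min with 500 uM ATP at 22 °C. The fluorescence ratio is summed target-cycle over summed buffer-cycle Cy3 intensity per cluster, averaged per switch-domain sequence, with clusters outside 100-1000 RFU excluded.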
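Also: ATP exposure 15 min at 22 °C before imaging.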

Row | Sequence | switch fluorescence ratio
1 | GCTGTGAGTT | 0.9821 ± 0.006
2 | GCTGTTGGAG | 1.02 ± 0.031
3 | GCTGTTGGGA | 0.9968 ± 0.0078
4 | GCTGTTGGTG | 1.002 ± 0.0037
5 | GCTGTTTGTA | 0.999 ± 0.03
6 | GCTGTTTTTC | 0.966 ± 0.03
7 | GCTGTTTTTT | 1 ± 0.044
8 | GCTTAAGAGG | 1.03 ± 0.017
9 | GCTTAATGT | 1 ± 0.083
10 | GCTTATGAAC | 1.019 ± 0.0045
11 | GCTTATTGTT | 0.99355 ± 0.00014
12 | GCTTCAGGGG | 1.09 ± 0.12
13 | GCTTCCAGGG | 1.14 ± 0.094
14 | GCTTCCGGCC | 1.15 ± 0.054
15 | GCTTCCTTTT | 1.01 ± 0.022
16 | GCTTCGGGGC | 1.01 ± 0.016
17 | GCTTCTACAG | 1.047 ± 0.01
18 | GCTTCTCACA | 0.981 ± 0.028
19 | GCTTCTGGGG | 1.03 ± 0.028
20 | GCTTCTTGGC | 0.967 ± 0.034
21 | GCTTGAGATT | 0.986 ± 0.015
22 | GCTTGCAGTG | 0.995 ± 0.033

Row | Sequence | switch fluorescence ratio
23 | GCTTGCCAAA | 0.998 ± 0.0083
24 | GCTTGCCTAG | 0.962 ± 0.038
25 | GCTTGGATCG | 0.993 ± 0.022
26 | GCTTGGCTAT | 0.989 ± 0.022
27 | GCTTGGGGAT | 1.01 ± 0.033
28 | GCTTGGGGCA | 0.967 ± 0.024
29 | GCTTGGGGTC | 0.953 ± 0.011
30 | GCTTGGGTTC | 1 ± 0.018
31 | GCTTGGTCAT | 0.9714 ± 0.0035
32 | GCTTGTACAT | 0.982 ± 0.018
33 | GCTTGTATTA | 0.985 ± 0.016
34 | GCTTGTCGGC | 0.99 ± 0.035
35 | GCTTGTGCTG | 0.978 ± 0.053
36 | GCTTGTTATG | 0.9931 ± 0.007
37 | GCTTGTTGTT | 0.995 ± 0.017
38 | GCTTTAAAAT | 1.004 ± 0.0088
39 | GCTTTAATTC | 1.029 ± 0.0049
40 | GCTTTAATTG | 1.004 ± 0.0097
41 | GCTTTAATTT | 1.07 ± 0.045
42 | GCTTTACACC | 1.19 ± 0.092
43 | GCTTTAGCAG | 1.03 ± 0.02
44 | GCTTTAGGTA | 0.9843 ± 0.0058

Row | Sequence | switch fluorescence ratio
45 | GCTTTATCGG | 0.965 ± 0.025
46 | GCTTTATGAA | 1.02 ± 0.054
47 | GCTTTCACGA | 0.9879 ± 0.0036
48 | GCTTTCCAGA | 0.9949 ± 0.0059
49 | GCTTTCCGGC | 1.02 ± 0.078
50 | GCTTTTAGGT | 0.968 ± 0.06
51 | GCTTTTGCTG | 0.997 ± 0.013
52 | GCTTTTGGCT | 0.992 ± 0.023
53 | GCTTTTTGCT | 1.012 ± 0.0054
54 | GCTTTTTTAC | 1.38 ± 0.32
55 | GGAAAAAAGT | 1.02 ± 0.047
56 | GGAAAAAGAT | 1.04 ± 0.018
57 | GGAAAAAGCC | 0.9562 ± 0.0042
58 | GGAAAATAGG | 0.977 ± 0.061
59 | GGAAAATGGG | 1.02 ± 0.065
60 | GGAAAGAAGG | 1 ± 0.032
61 | GGAAAGACCG | 1 ± 0.012
62 | GGAAATATAG | 0.989 ± 0.012
63 | GGAACAGGTG | 3.49 ± 2
64 | GGAACATCTG | 1.007 ± 0.0071
65 | GGAACATGGG | 1.004 ± 0.0024
66 | GGAACCAGGC | 1.12 ± 0.032

Row | Sequence | switch fluorescence ratio
67 | GGAACCCAGA | 0.988 ± 0.021
68 | GGAACCGGTA | 1.02 ± 0.012
69 | GGAACGTGGT | 0.971 ± 0.017
70 | GGAACTGTCT | 1.01 ± 0.013
71 | GGAACTGTGC | 0.948 ± 0.12
72 | GGAACTTGTG | 0.9732 ± 0.0075
73 | GGAAGAGGAG | 0.983 ± 0.014
74 | GGAAGCCACG | 1.06 ± 0.022
75 | GGAAGGAGAG | 0.986 ± 0.018
76 | GGAAGGAGAT | 1.003 ± 0.0093
77 | GGAAGGAGGC | 1.02 ± 0.088
78 | GGAAGGGAAA | 0.981 ± 0.029
79 | GGAAGGTATG | 1.02 ± 0.071
80 | GGAAGTGGTC | 1.01 ± 0.059
81 | GGAATAAATG | 1.021 ± 0.009
82 | GGAATACGTT | 1.08 ± 0.061
83 | GGAATCAGGA | 0.991 ± 0.011
84 | GGAATCCGTT | 1.027 ± 0.0025
85 | GGAATCTGAT | 0.996 ± 0.12
